Measurements taken from patent publication US20110085970A1 (published 2011).

B1: 12E1 human monoclonal antibody (anti-O8E / anti-B7-H4) (antibody, V domains shown)
VH: EVQLVESGGGLVQPGRSLRLSCVASGFTFDDYAMHWVRQAPGKGLEWVSGISWNSGSIGYADSVKGRFTISRDNAKNSLYLQMNSLRAEDTALYYCTKALYGSGSSDFYYYGMDVWGQGTTVAVSS
VL: EIVLTQSPATLSLSPGERATLSCRASQSVSSYLAWYQQKPGQAPRLLIYDASNRATGIPARFSGSGSGTDFTLTISSLEPEDFAVYYCQQRRTFGQGTKVEIK
notes: Hybridoma-derived fully human IgG with a kappa light chain (VK L6/JK1); also called 12E1.G9
B2: 1G11 human monoclonal antibody (anti-O8E / anti-B7-H4) (antibody, V domains shown)
VH: QVQLQQWGAGLLKPSETLSLTCAVYGGSFSDYFWTWIRQPPGKGLEWIGEINHSGTTNYNPSLKSRVTISADTSKNQFSLRLSSVTAADTAVYYCARLSSWSNWAFEYWGQGTLVTVSS
VL: EIVLTQFPGTLSLSPGERATLSCRASQSVSSTYLAWYQQKPGQAPRVLIYGASRRATGIPDRFSGSGSGTDFTLTISRLEPEDFAVYYCQQYGSSPLTFGGGTKVEIK
notes: Hybridoma-derived fully human IgG with a kappa light chain (VK A27); also called 1G11.H11-FITC; 1G11.H1
B3: 13D12 human monoclonal antibody (anti-O8E / anti-B7-H4) (antibody, V domains shown)
VH: QVQLQQWGAGLLKPSETLSLTCAVYGGSFSGYYWSWIRQPPGKGLEWIGKINHSGSTNYNPSLKSRVTISVDTSKNQFSLKLNSVTAADTAVYYCARELRYFENYYYGMDVWGQGTTVTVSS
VL: not shown
notes: Hybridoma-derived fully human IgG with a kappa light chain (VK A27); also called 13D12.G10

What was measured:
[1] = biological target: T1, human O8E (B7-H4) expressed on cells (human, UniProt Q7Z7D3 25-282); experiment: titration of labelled antibody on O8E-transfected cells (Scatchard set-up), sigmoidal dose response fit; BOTTOM and TOP fixed for incomplete curve
T1 construct: Full length O8E on transfected HEK, CHO and SKOV3 cells, or endogenous on SKBR3 and ZR-75 cells and in human tumour biopsies; also called B7S1; B7x
T1 sequence: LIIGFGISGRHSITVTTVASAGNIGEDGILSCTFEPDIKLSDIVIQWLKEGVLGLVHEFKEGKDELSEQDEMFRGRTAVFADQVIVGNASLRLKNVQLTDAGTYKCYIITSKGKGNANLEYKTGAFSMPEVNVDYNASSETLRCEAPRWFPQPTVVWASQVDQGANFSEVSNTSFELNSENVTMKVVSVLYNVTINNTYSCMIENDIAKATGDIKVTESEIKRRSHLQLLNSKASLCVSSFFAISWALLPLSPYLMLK

[2] = biological target: T2, Recombinant Penta-B7H4 protein with a C-9 tag (human, UniProt Q7Z7D3 25-259); experiment: ELISA: anti-mouse Fc coat, monoclonal anti-C9 at 0.6 ug/ml, Penta-B7H4 titrated (varied component), human antibody fixed at 1 ug/ml
T2 construct: also called Penta-O8E; Penta-B7H4-C9; not shown: 'Penta' part and C-9 tag
T2 sequence: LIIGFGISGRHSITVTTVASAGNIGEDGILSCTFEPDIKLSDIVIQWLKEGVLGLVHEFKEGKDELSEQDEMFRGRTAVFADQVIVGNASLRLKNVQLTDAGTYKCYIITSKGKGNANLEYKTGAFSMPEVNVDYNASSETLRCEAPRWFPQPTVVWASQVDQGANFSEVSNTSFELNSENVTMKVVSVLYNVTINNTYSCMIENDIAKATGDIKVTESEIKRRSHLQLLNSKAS

[3] = biological target: T1, human O8E (B7-H4) expressed on cells; experiment: titration of labelled antibody on O8E-transfected cells (Scatchard set-up), sigmoidal dose response fit
Method: HEK cells were transfected with full length O8E using standard techniques and grown in RPMI media containing 10% fetal bovine serum (FBS). […] Millipore plates (MAFB NOB) were coated with 1% nonfat dry milk in water and stored a 4° C. overnight. The plates were washed three times with 0.2 ml of binding buffer. Fifty microliters of buffer alone was added to the maximum binding wells (total binding). Twenty-five microliters of buffer alone was added to the control wells (non-specific binding). Varying concentration of ¹²⁵I-anti-O8E antibody was added to all wells in a volume of 25 μl. (In some cases FITC labeled antibodies were used for the titration since unlabeled material was not available, binding may be compromised in these instances.) Varying concentrations of unlabeled antibody at 100 fold excess was added in a volume of 25 μl to control wells and 25 μl of O8E transfected CHO cells (2×10⁶ cells/ml) in binding buffer were added to all wells. The plates were incubated for 2 hours at 200 RPM on a shaker at 4° C. At the completion of the incubation the Millipore plates were washed three times with 0.2 ml of cold wash buffer (24 mM Tris pH 7.2, 500 mM NaCl, 2.7 mM KCl, 2 mM Glucose, 1 mM CaCl₂, 1 mM MgCl₂, 0.1% BSA.). The filters were removed and counted in a gamma counter. […]

Binder	EC50 [1]	EC50 (read off the curve) [2]	EC50 [3]
B1	~19.8 nM	~0.05 µg/mL	–
B2	–	–	1.69 nM
B3	–	–	0.746 nM
